assay: soluble on expression in E. coli; label from the status in PepcDB or PDB records

Sequence | soluble on expression in E. coli
MSLKKLLVIRNDKIGDFMLAWPSFAMLKASLPDCHITALVPKYTAALAELCPWIDAVIIDPGQQADKAQHKQLVQTVKAQQFDASINLFSTMYNALLVWKARIPYRLAPATKLAQIFYQHRIKQKRSQSAKPEYEYNLDLVRAFLRDIGQPIIEPNAPYLTFPAEQLAAQRSKLAEQLDIGPDKAWLFVHAGSGGSANNLSLEQYCELVTGVMDEHKQVVLTAGPGEEEKAAQLQSLLAEQGVLAALYAKNDGLVDFTRSLACAQLFIAGSTGPLHIAAALDVPTVGFFPAKRSATPLRWRPLNSQGKHIAFCPPPADDKANQENMGRIDMKSVLTELAPWLRSVQLEGHHHHHH | soluble
MPSRVPKSIFYNQVGYLISGDKRFWIQAHEPQPFALRTPEGQAVFAGMTKPVGGNWYVGDFTALRVPGTYTLTVGTLEARVVIHRRAYRDVLEAMLRFFDYQLCGVVLPEDEAGPWAHGACHTSDAKVFGTERALACPGGWHDAGDYGKYTVPAAKAVADLLLAHEYFPAALAHVRPMRSVHRAPHLPPALEVAREEIAWLLTMQDPATGGVYHKVTTPSFPPLDTRPEDDDAPLVLSPISYAATATFCAAMAHAALVYRPFDPALSSCCADAARRAYAWLGAHEMQPFHNPDGILTGEYGDAELRDELLWASCALLRMTGDSAWARVCEPLLDLDLPWELGWADVALYGVMDYLRTPRAAVSDDVRNKVKSRLLRELDALAAMAESHPFGIPMRDDDFIWGSNMVLLNRAMAFLLAEGVGVLHPAAHTVAQRAADYLFGANPLGQCYVTGFGQRPVRHPHHRPSVADDVDHPVPGMVVGGPNRHLQDEIARAQLAGRPAMEAYIDHQDSYSTNEVAVYWNSPAVFVIAALLEARGR | soluble
MRPLSLKGHERALTRVRFNREGDLTFSCAKDKKPCVWYTENGERIGSYDGHNGAVWDIDVSWDTTKCVTASGDLTVKIWDAELGNCLYTINHQTPMKSCGFSYSGNLVCFTTQKMTKNLSTFQVRDLRDSSQMVEGGESFFYSQFDVNATTALFTQMDDLVTIGFESGLLQQYDLRNPDTPIHTNESVHRYSVQDLQLSPRGDFLISASRDKTAALLDVNDLKKLKQYKSERPVNSACISPNRDHICLGGGEDAMQVTQTSVSAGHFEAKIYHMVFEEEFARFKGHFGPINTMAWHPSGTIIATGGEDGYIRIQEFDEDYLGFTYDF | not soluble
MSIAQQLMDMGFPADKAEAAAGNNRNLDQALDWIEKDGAGVPMETDAPAQAAPGAADSGAPPVAASFKCDDCGKLLANDDAIMFHASKTKHENFSESSEAIKPLTAEEKAAKVLEIREKIKVHQAKKAKLEAEENREKEKKRREDGKAMISHKEAARDREIREAAQDRRREKNEDEIARKRVLEQIRLDKEARKAKASGQPVPEAKPAPSAAPVAPPKDYSTTTLQFRLLDGQTVRQQFEANEPLAMVRAWVETNHANGVPFTLMTPFPRKVFTEDDMGTPLKVLNLVPSANVILNRAA | not soluble
MYILLCCAAGMSTSMVVRKMQEEAKKQGKDYKIKAVDSELVKLEIKNADVVLIGPQVKYLFPAVQFLAKSYDIPVAIIEQRDYGMCDGLKVLKQAEQLVLA | not soluble
MILKALPNESMPREKLLQRGPQALTDAELLAIFLRTGTQGMNVIELADFLIQDFGSLRQLFSASEQEFCQHKGLGQAKYVQLQAVLEMTQRYLAETLKRGDALTSPEQTKLYLSSILRDRQREAFYILFLDNQHRVIKDEILFEGTLDAASVYPREVVKRALHHNAAALILAHNHPSGVAEPSQADRRITRRLIDALALVDIRILDHFVIGDGESVSFAERGWI | not soluble
SQACVMPSLLQNMVGFSEVARATQTDPRPQRPAPPQPQVATMPWSQPGSWARRGFVPAWSQPPALSQQKLARQCCLGPWAGLIPHQQPLPRHPPQASSFPTTAGLWPPAFAQCGTLGHRAIYLVLWPPFLGPWLSSLQEKPHFIPQLPPACTPHPVPWWGLSIPGSKGRRSAPFLPLSLGRLGAQLWKHHPATHLSCGSRFFGGS | soluble
MEALLKEAFLEALKATDPYRLTAKHLPPWRPDLVLAVGKAAAPMLQAALDRYGEVPYHLTLPKGQKAPGLKAVFARHPVPDEESVRAAEEVLGLLQGLSPRARVLALLSGGGSALWCAPLGISLEEKRALTEALLKSGASIHEMNAVRKHLSQIKGGRALLATRAKVHVLLLSDVPGDDPSVIASGPFHPDPTTYAEALALLDRYGLAFPGARAVLRQGVEGRLPETLKPQDPALRRLAWRLVGTNLHLLRAAQRFLRARGFRAAVLSDRFGGEARALARFHAELIEAIRAHGVPFRKPLFLLSGGEAQVRVVGRGRGGRNLEFLLALYAHLKTPLYALAADSDGLDGNSGAAGALLTPAVWEKGLDPRPFLEENDSLGFFQEAGTLLKTGPTGTNLNDFRLLLVD | soluble

Source: the DeepSol protein solubility set
